B1: Protein PTHB1 (Homo sapiens), Q3SYG4 (parent)
chain: MSLFKARDWWSTILGDKEEFDQGCLCLANVDNSGNGQDKIIVGSFMGYLRIFSPHPAKTGDGAQAEDLLLEVDLRDPVLQVEVGKFVSGTEMLHLAVLHSRKLCVYSVSGTLGNVEHGNQCQMKLMYEHNLQRTACNMTYGSFGGVKGRDLICIQSMDGMLMVFEQESYAFGRFLPGFLLPGPLAYSSRTDSFLTVSSCQQVESYKYQVLAFATDADKRQETEQQKLGSGKRLVVDWTLNIGEQALDICIVSFNQSASSVFVLGERNFFCLKDNGQIRFMKKLDWSPSCFLPYCSVSEGTINTLIGNHNNMLHIYQDVTLKWATQLPHIPVAVRVGCLHDLKGVIVTLSDDGHLQCSYLGTDPSLFQAPNVQSRELNYDELDVEMKELQKIIKDVNKSQGVWPMTEREDDLNVSVVVSPNFDSVSQATDVEVGTDLVPSVTVKVTLQNRVILQKAKLSVYVQPPLELTCDQFTFEFMTPDLTRTVSFSVYLKRSYTPSELEGNAVVSYSRPTDRNPDGIPRVIQCKFRLPLKLICLPGQPSKTASHKITIDTNKSPVSLLSLFPGFASQSDDDQVNVMGFHFLGGARITVLASKTSQRYRIQSEQFEDLWLITNELILRLQEYFEKQGVKDFACSFSGSIPLQEYFELIDHHFELRINGEKLEELLSERAVQFRAIQRRLLARFKDKTPAPLQHLDTLLDGTYKQVIALADAVEENQGNLFQSFTRLKSATHLVILLIALWQKLSADQVAILEAAFLPLQEDTQELGWEETVDAAISHLLKTCLSKSSKEQALNLNSQLNIPKDTSQLKKHITLLCDRLSKGGRLCLSTDAAAPQTMVMPGGCTTIPESDLEERSVEQDSTELFTNHRHLTAETPRPEVSPLQGVSE
partner: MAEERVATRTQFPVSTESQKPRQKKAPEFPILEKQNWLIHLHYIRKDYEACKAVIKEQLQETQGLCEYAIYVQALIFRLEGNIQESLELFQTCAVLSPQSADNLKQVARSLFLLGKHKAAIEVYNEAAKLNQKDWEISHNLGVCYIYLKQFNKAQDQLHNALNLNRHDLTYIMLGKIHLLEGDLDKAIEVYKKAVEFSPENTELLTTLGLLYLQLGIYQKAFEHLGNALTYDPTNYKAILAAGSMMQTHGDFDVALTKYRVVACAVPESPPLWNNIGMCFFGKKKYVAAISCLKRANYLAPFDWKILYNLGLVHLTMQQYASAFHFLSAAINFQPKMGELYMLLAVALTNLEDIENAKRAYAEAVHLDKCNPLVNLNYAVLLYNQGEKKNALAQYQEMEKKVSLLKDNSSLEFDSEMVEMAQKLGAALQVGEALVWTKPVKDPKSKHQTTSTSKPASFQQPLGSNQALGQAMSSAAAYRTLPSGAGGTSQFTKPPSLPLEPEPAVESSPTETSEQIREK

Variants of: B1
Conditions: with bbs4_human BBS4, Q96RK4

Row | effect of a mutation on the interaction | Variant
1 | with no effect | G585A
2 | with no effect | G585E
3 | with no effect | G585K
4 | with no effect | A586E
5 | with no effect | A586K
6 | with no effect | R587A
7 | with no effect | R587E
8 | with no effect | R587K
9 | disrupting interaction strength | R587T
10 | with no effect | I588A
11 | with no effect | I588E
12 | with no effect | I588K
13 | disrupting interaction strength | T589A
14 | with no effect | T589E
15 | disrupting interaction strength | T589I
16 | with no effect | T589K
17 | with no effect | V590A
18 | with no effect | V590E
19 | with no effect | V590K
20 | with no effect | L591A
21 | with no effect | L591E
22 | with no effect | L591K
23 | with no effect | A592E
24 | with no effect | A592K
25 | with no effect | S593A
26 | with no effect | S593E
27 | with no effect | S593K
28 | with no effect | K594A

Row | effect of a mutation on the interaction | Variant
29 | with no effect | K594E
30 | with no effect | T595A
31 | with no effect | T595E
32 | with no effect | T595K
33 | with no effect | S596A
34 | with no effect | S596E
35 | with no effect | S596K
36 | with no effect | Q597A
37 | with no effect | Q597E
38 | with no effect | Q597K
39 | disrupting interaction strength | Q597R
40 | with no effect | R598A
41 | with no effect | R598E
42 | with no effect | R598K
43 | with no effect | Y599A
44 | with no effect | Y599E
45 | with no effect | Y599K
46 | with no effect | R600A
47 | with no effect | R600E
48 | disrupting interaction strength | R600G
49 | with no effect | R600K
50 | with no effect | I601A
51 | with no effect | I601E
52 | with no effect | I601K
53 | with no effect | Q602A
54 | with no effect | Q602E
55 | with no effect | Q602K

Continued, variant first:

Row | Variant | effect of a mutation on the interaction
56 | A544K | with no effect
57 | S545A | with no effect
58 | S545E | with no effect
59 | S545K | with no effect
60 | H546A | with no effect
61 | H546E | with no effect
62 | H546K | with no effect
63 | K547A | with no effect
64 | K547E | with no effect
65 | I548A | with no effect
66 | I548E | with no effect
67 | I548K | with no effect
68 | T549A | with no effect
69 | T549E | with no effect
70 | T549K | with no effect
71 | I550A | with no effect
72 | I550E | with no effect
73 | I550K | with no effect
74 | D551A | with no effect
75 | D551E | with no effect
76 | D551K | with no effect
77 | T552A | with no effect
78 | T552E | with no effect
79 | T552K | with no effect
80 | N553A | with no effect
81 | N553E | with no effect

Row | Variant | effect of a mutation on the interaction
82 | N553K | with no effect
83 | K554A | with no effect
84 | K554E | with no effect
85 | K554S | disrupting interaction strength
86 | S555A | with no effect
87 | S555E | with no effect
88 | S555K | with no effect
89 | P556A | with no effect
90 | P556E | with no effect
91 | P556K | with no effect
92 | V557A | with no effect
93 | V557E | with no effect
94 | V557K | with no effect
95 | S558A | with no effect
96 | S558E | with no effect
97 | S558K | with no effect
98 | L559A | with no effect
99 | L559E | with no effect
100 | L559F | disrupting interaction strength
101 | L559K | with no effect
102 | L560A | with no effect
103 | L560E | with no effect
104 | L560K | with no effect
105 | S561A | with no effect
106 | S561E | with no effect
107 | S561K | with no effect

Row | Variant | effect of a mutation on the interaction
108 | L562A | with no effect
109 | L562E | with no effect
110 | L562K | with no effect
111 | F563A | with no effect
112 | F563E | with no effect
113 | F563K | with no effect
114 | F563S | disrupting interaction strength
115 | P564A | with no effect
116 | P564E | with no effect
117 | P564K | with no effect
118 | P564S | disrupting interaction strength
119 | G565A | with no effect
120 | G565E | with no effect
121 | G565K | with no effect
122 | G565R | disrupting interaction strength
123 | F566A | with no effect
124 | F566E | with no effect
125 | F566K | with no effect
126 | A567E | with no effect
127 | A567K | with no effect
128 | S568A | with no effect
129 | S568E | with no effect
130 | S568K | with no effect
131 | Q569A | with no effect
132 | Q569E | with no effect
133 | Q569K | with no effect

Row | Variant | effect of a mutation on the interaction
134 | Q569R | disrupting interaction strength
135 | S570A | with no effect
136 | S570E | with no effect
137 | S570K | with no effect
138 | D571A | with no effect
139 | D571E | with no effect
140 | D571K | with no effect
141 | D572A | with no effect
142 | D572E | with no effect
143 | D572K | with no effect
144 | D572N | disrupting interaction strength
145 | D573A | with no effect
146 | D573E | with no effect
147 | D573K | with no effect
148 | Q574A | with no effect
149 | Q574E | with no effect
150 | Q574K | with no effect
151 | Q574R | disrupting interaction strength
152 | V575A | with no effect
153 | V575E | with no effect
154 | V575K | with no effect
155 | N576A | with no effect
156 | N576E | with no effect
157 | N576K | with no effect
158 | V577A | with no effect
159 | V577E | with no effect

Row | Variant | effect of a mutation on the interaction
160 | V577K | with no effect
161 | M578A | with no effect
162 | M578E | with no effect
163 | M578K | with no effect
164 | G579A | with no effect
165 | G579E | with no effect
166 | G579K | with no effect
167 | F580A | with no effect
168 | F580E | with no effect
169 | F580K | with no effect
170 | H581A | with no effect
171 | H581E | with no effect
172 | H581K | with no effect
173 | F582A | with no effect
174 | F582E | with no effect
175 | F582K | with no effect
176 | L583A | with no effect
177 | L583E | with no effect
178 | L583K | with no effect
179 | G584A | with no effect
180 | G584E | disrupting interaction strength
181 | G584K | with no effect

Reference: IntAct's records for PubMed 29039417
